The supplement of paper PMC11811203

B1: THAP1; numbered along this chain (parent)
chain: MVQSCSAYGCKNRYDKDKPVSFHKFPLTRPSLCKEWEAAVRRKNFKPTKYSSICSEHFTPDCFKRECNNKLLKENAVPTIFLCTEPHDKKEDLLEPQEQLPPPPLPPPVSQVDAAIGLLMPPLQTPVNLSVFCDHNYTVEDTMHQRKRIHQLEQQVEKLRKKLKTAQQRCRRQERQLEKLKEVVHFQKEKDDVSERGYVILPNDYFEIVEVPA

Variants of: B1
Assay: THAP1 transcriptional activity (GFP+/GFP- enrichment relative to wild-type constructs) (ratio to WT); higher = more THAP1 activity (PSMB5 reporter activation)
Settings: with PSMB5 promoter-GFP reporter
Procedure, shortened: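 Variants were counted by Illumina sequencing of genomic DNA amplicons from BFP+ cells sorted into GFP-bright and GFP-dim bins five days after lentiviral transduction, in duplicate at MOI ~0.3. The library changed each of residues 2–213 of human THAP1 to all 20 amino acids and was introduced into THAP1-knockout HEK-293T cells with mClover3 knocked in at endogenous PSMB5. Activity equals the replicate-mean bright/dim read fold change over the mean of wild-type synonymous constructs.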

Row | Variant | THAP1 transcriptional activity
1 | MVQSCSAYGCKNRYDKDKPVSFHKFPLTRPSLCKEWEAAVRRKNFKPTKYSSICSEHFTPDCFKRECNNKLLKENAVPTIFLCTEPHDKKEDLLEPQEQLPPPPLPPPVSQVDAAIGLLMPPLQTPVNLSVFCDHNYTVEDTVHQRKRIHQLEQQVEKLRKKLKTAQQRCRRQERQLEKLKEVVHFQKEKDDVSERGYVILPNDYFEIVEVPA [M143V] | 1.09
2 | MVQSCSAYGCKNRYDKDKPVSFHKFPLTRPSLCKEWEAAVRRKNFKPTKYSSICSEHFTPDCFKRECNNKLLKENAVPTIFLCTEPHDKKEDLLEPQEQLPPPPLPPPVSQVDAAIGLLMPPLQTPVNLSVFCDHNYTVEDTWHQRKRIHQLEQQVEKLRKKLKTAQQRCRRQERQLEKLKEVVHFQKEKDDVSERGYVILPNDYFEIVEVPA [M143W] | 0.719
3 | MVQSCSAYGCKNRYDKDKPVSFHKFPLTRPSLCKEWEAAVRRKNFKPTKYSSICSEHFTPDCFKRECNNKLLKENAVPTIFLCTEPHDKKEDLLEPQEQLPPPPLPPPVSQVDAAIGLLMPPLQTPVNLSVFCDHNYTVEDTYHQRKRIHQLEQQVEKLRKKLKTAQQRCRRQERQLEKLKEVVHFQKEKDDVSERGYVILPNDYFEIVEVPA [M143Y] | 0.547
4 | MVQSCSAYGCKNRYDKDKPVSFHKFPLTRPSLCKEWEAAVRRKNFKPTKYSSICSEHFTPDCFKRECNNKLLKENAVPTIFLCTEPHDKKEDLLEPQEQLPPPPLPPPVSQVDAAIGLLMPPLQTPVNLSVFCDHNYTVEDTMAQRKRIHQLEQQVEKLRKKLKTAQQRCRRQERQLEKLKEVVHFQKEKDDVSERGYVILPNDYFEIVEVPA [H144A] | 1.5
5 | MVQSCSAYGCKNRYDKDKPVSFHKFPLTRPSLCKEWEAAVRRKNFKPTKYSSICSEHFTPDCFKRECNNKLLKENAVPTIFLCTEPHDKKEDLLEPQEQLPPPPLPPPVSQVDAAIGLLMPPLQTPVNLSVFCDHNYTVEDTMCQRKRIHQLEQQVEKLRKKLKTAQQRCRRQERQLEKLKEVVHFQKEKDDVSERGYVILPNDYFEIVEVPA [H144C] | 0.498
6 | MVQSCSAYGCKNRYDKDKPVSFHKFPLTRPSLCKEWEAAVRRKNFKPTKYSSICSEHFTPDCFKRECNNKLLKENAVPTIFLCTEPHDKKEDLLEPQEQLPPPPLPPPVSQVDAAIGLLMPPLQTPVNLSVFCDHNYTVEDTMDQRKRIHQLEQQVEKLRKKLKTAQQRCRRQERQLEKLKEVVHFQKEKDDVSERGYVILPNDYFEIVEVPA [H144D] | 0.747
7 | MVQSCSAYGCKNRYDKDKPVSFHKFPLTRPSLCKEWEAAVRRKNFKPTKYSSICSEHFTPDCFKRECNNKLLKENAVPTIFLCTEPHDKKEDLLEPQEQLPPPPLPPPVSQVDAAIGLLMPPLQTPVNLSVFCDHNYTVEDTMEQRKRIHQLEQQVEKLRKKLKTAQQRCRRQERQLEKLKEVVHFQKEKDDVSERGYVILPNDYFEIVEVPA [H144E] | 0.421
8 | MVQSCSAYGCKNRYDKDKPVSFHKFPLTRPSLCKEWEAAVRRKNFKPTKYSSICSEHFTPDCFKRECNNKLLKENAVPTIFLCTEPHDKKEDLLEPQEQLPPPPLPPPVSQVDAAIGLLMPPLQTPVNLSVFCDHNYTVEDTMFQRKRIHQLEQQVEKLRKKLKTAQQRCRRQERQLEKLKEVVHFQKEKDDVSERGYVILPNDYFEIVEVPA [H144F] | 0.637
9 | MVQSCSAYGCKNRYDKDKPVSFHKFPLTRPSLCKEWEAAVRRKNFKPTKYSSICSEHFTPDCFKRECNNKLLKENAVPTIFLCTEPHDKKEDLLEPQEQLPPPPLPPPVSQVDAAIGLLMPPLQTPVNLSVFCDHNYTVEDTMGQRKRIHQLEQQVEKLRKKLKTAQQRCRRQERQLEKLKEVVHFQKEKDDVSERGYVILPNDYFEIVEVPA [H144G] | 1.11
10 | MVQSCSAYGCKNRYDKDKPVSFHKFPLTRPSLCKEWEAAVRRKNFKPTKYSSICSEHFTPDCFKRECNNKLLKENAVPTIFLCTEPHDKKEDLLEPQEQLPPPPLPPPVSQVDAAIGLLMPPLQTPVNLSVFCDHNYTVEDTMKQRKRIHQLEQQVEKLRKKLKTAQQRCRRQERQLEKLKEVVHFQKEKDDVSERGYVILPNDYFEIVEVPA [H144K] | 0.954
11 | MVQSCSAYGCKNRYDKDKPVSFHKFPLTRPSLCKEWEAAVRRKNFKPTKYSSICSEHFTPDCFKRECNNKLLKENAVPTIFLCTEPHDKKEDLLEPQEQLPPPPLPPPVSQVDAAIGLLMPPLQTPVNLSVFCDHNYTVEDTMMQRKRIHQLEQQVEKLRKKLKTAQQRCRRQERQLEKLKEVVHFQKEKDDVSERGYVILPNDYFEIVEVPA [H144M] | 0.509
12 | MVQSCSAYGCKNRYDKDKPVSFHKFPLTRPSLCKEWEAAVRRKNFKPTKYSSICSEHFTPDCFKRECNNKLLKENAVPTIFLCTEPHDKKEDLLEPQEQLPPPPLPPPVSQVDAAIGLLMPPLQTPVNLSVFCDHNYTVEDTMNQRKRIHQLEQQVEKLRKKLKTAQQRCRRQERQLEKLKEVVHFQKEKDDVSERGYVILPNDYFEIVEVPA [H144N] | 0.686
13 | MVQSCSAYGCKNRYDKDKPVSFHKFPLTRPSLCKEWEAAVRRKNFKPTKYSSICSEHFTPDCFKRECNNKLLKENAVPTIFLCTEPHDKKEDLLEPQEQLPPPPLPPPVSQVDAAIGLLMPPLQTPVNLSVFCDHNYTVEDTMPQRKRIHQLEQQVEKLRKKLKTAQQRCRRQERQLEKLKEVVHFQKEKDDVSERGYVILPNDYFEIVEVPA [H144P] | 0.334
14 | MVQSCSAYGCKNRYDKDKPVSFHKFPLTRPSLCKEWEAAVRRKNFKPTKYSSICSEHFTPDCFKRECNNKLLKENAVPTIFLCTEPHDKKEDLLEPQEQLPPPPLPPPVSQVDAAIGLLMPPLQTPVNLSVFCDHNYTVEDTMQQRKRIHQLEQQVEKLRKKLKTAQQRCRRQERQLEKLKEVVHFQKEKDDVSERGYVILPNDYFEIVEVPA [H144Q] | 0.814
15 | MVQSCSAYGCKNRYDKDKPVSFHKFPLTRPSLCKEWEAAVRRKNFKPTKYSSICSEHFTPDCFKRECNNKLLKENAVPTIFLCTEPHDKKEDLLEPQEQLPPPPLPPPVSQVDAAIGLLMPPLQTPVNLSVFCDHNYTVEDTMRQRKRIHQLEQQVEKLRKKLKTAQQRCRRQERQLEKLKEVVHFQKEKDDVSERGYVILPNDYFEIVEVPA [H144R] | 0.709
16 | MVQSCSAYGCKNRYDKDKPVSFHKFPLTRPSLCKEWEAAVRRKNFKPTKYSSICSEHFTPDCFKRECNNKLLKENAVPTIFLCTEPHDKKEDLLEPQEQLPPPPLPPPVSQVDAAIGLLMPPLQTPVNLSVFCDHNYTVEDTMSQRKRIHQLEQQVEKLRKKLKTAQQRCRRQERQLEKLKEVVHFQKEKDDVSERGYVILPNDYFEIVEVPA [H144S] | 0.747
17 | MVQSCSAYGCKNRYDKDKPVSFHKFPLTRPSLCKEWEAAVRRKNFKPTKYSSICSEHFTPDCFKRECNNKLLKENAVPTIFLCTEPHDKKEDLLEPQEQLPPPPLPPPVSQVDAAIGLLMPPLQTPVNLSVFCDHNYTVEDTMTQRKRIHQLEQQVEKLRKKLKTAQQRCRRQERQLEKLKEVVHFQKEKDDVSERGYVILPNDYFEIVEVPA [H144T] | 0.4
18 | MVQSCSAYGCKNRYDKDKPVSFHKFPLTRPSLCKEWEAAVRRKNFKPTKYSSICSEHFTPDCFKRECNNKLLKENAVPTIFLCTEPHDKKEDLLEPQEQLPPPPLPPPVSQVDAAIGLLMPPLQTPVNLSVFCDHNYTVEDTMVQRKRIHQLEQQVEKLRKKLKTAQQRCRRQERQLEKLKEVVHFQKEKDDVSERGYVILPNDYFEIVEVPA [H144V] | 0.388
19 | MVQSCSAYGCKNRYDKDKPVSFHKFPLTRPSLCKEWEAAVRRKNFKPTKYSSICSEHFTPDCFKRECNNKLLKENAVPTIFLCTEPHDKKEDLLEPQEQLPPPPLPPPVSQVDAAIGLLMPPLQTPVNLSVFCDHNYTVEDTMWQRKRIHQLEQQVEKLRKKLKTAQQRCRRQERQLEKLKEVVHFQKEKDDVSERGYVILPNDYFEIVEVPA [H144W] | 0.56
20 | MVQSCSAYGCKNRYDKDKPVSFHKFPLTRPSLCKEWEAAVRRKNFKPTKYSSICSEHFTPDCFKRECNNKLLKENAVPTIFLCTEPHDKKEDLLEPQEQLPPPPLPPPVSQVDAAIGLLMPPLQTPVNLSVFCDHNYTVEDTMYQRKRIHQLEQQVEKLRKKLKTAQQRCRRQERQLEKLKEVVHFQKEKDDVSERGYVILPNDYFEIVEVPA [H144Y] | 0.802
21 | MVQSCSAYGCKNRYDKDKPVSFHKFPLTRPSLCKEWEAAVRRKNFKPTKYSSICSEHFTPDCFKRECNNKLLKENAVPTIFLCTEPHDKKEDLLEPQEQLPPPPLPPPVSQVDAAIGLLMPPLQTPVNLSVFCDHNYTVEDTMHARKRIHQLEQQVEKLRKKLKTAQQRCRRQERQLEKLKEVVHFQKEKDDVSERGYVILPNDYFEIVEVPA [Q145A] | 1.08
22 | MVQSCSAYGCKNRYDKDKPVSFHKFPLTRPSLCKEWEAAVRRKNFKPTKYSSICSEHFTPDCFKRECNNKLLKENAVPTIFLCTEPHDKKEDLLEPQEQLPPPPLPPPVSQVDAAIGLLMPPLQTPVNLSVFCDHNYTVEDTMHCRKRIHQLEQQVEKLRKKLKTAQQRCRRQERQLEKLKEVVHFQKEKDDVSERGYVILPNDYFEIVEVPA [Q145C] | 0.357
23 | MVQSCSAYGCKNRYDKDKPVSFHKFPLTRPSLCKEWEAAVRRKNFKPTKYSSICSEHFTPDCFKRECNNKLLKENAVPTIFLCTEPHDKKEDLLEPQEQLPPPPLPPPVSQVDAAIGLLMPPLQTPVNLSVFCDHNYTVEDTMHDRKRIHQLEQQVEKLRKKLKTAQQRCRRQERQLEKLKEVVHFQKEKDDVSERGYVILPNDYFEIVEVPA [Q145D] | 0.415
24 | MVQSCSAYGCKNRYDKDKPVSFHKFPLTRPSLCKEWEAAVRRKNFKPTKYSSICSEHFTPDCFKRECNNKLLKENAVPTIFLCTEPHDKKEDLLEPQEQLPPPPLPPPVSQVDAAIGLLMPPLQTPVNLSVFCDHNYTVEDTMHERKRIHQLEQQVEKLRKKLKTAQQRCRRQERQLEKLKEVVHFQKEKDDVSERGYVILPNDYFEIVEVPA [Q145E] | 0.577
25 | MVQSCSAYGCKNRYDKDKPVSFHKFPLTRPSLCKEWEAAVRRKNFKPTKYSSICSEHFTPDCFKRECNNKLLKENAVPTIFLCTEPHDKKEDLLEPQEQLPPPPLPPPVSQVDAAIGLLMPPLQTPVNLSVFCDHNYTVEDTMHFRKRIHQLEQQVEKLRKKLKTAQQRCRRQERQLEKLKEVVHFQKEKDDVSERGYVILPNDYFEIVEVPA [Q145F] | 0.716
26 | MVQSCSAYGCKNRYDKDKPVSFHKFPLTRPSLCKEWEAAVRRKNFKPTKYSSICSEHFTPDCFKRECNNKLLKENAVPTIFLCTEPHDKKEDLLEPQEQLPPPPLPPPVSQVDAAIGLLMPPLQTPVNLSVFCDHNYTVEDTMHGRKRIHQLEQQVEKLRKKLKTAQQRCRRQERQLEKLKEVVHFQKEKDDVSERGYVILPNDYFEIVEVPA [Q145G] | 0.569
27 | MVQSCSAYGCKNRYDKDKPVSFHKFPLTRPSLCKEWEAAVRRKNFKPTKYSSICSEHFTPDCFKRECNNKLLKENAVPTIFLCTEPHDKKEDLLEPQEQLPPPPLPPPVSQVDAAIGLLMPPLQTPVNLSVFCDHNYTVEDTMHHRKRIHQLEQQVEKLRKKLKTAQQRCRRQERQLEKLKEVVHFQKEKDDVSERGYVILPNDYFEIVEVPA [Q145H] | 0.747
28 | MVQSCSAYGCKNRYDKDKPVSFHKFPLTRPSLCKEWEAAVRRKNFKPTKYSSICSEHFTPDCFKRECNNKLLKENAVPTIFLCTEPHDKKEDLLEPQEQLPPPPLPPPVSQVDAAIGLLMPPLQTPVNLSVFCDHNYTVEDTMHIRKRIHQLEQQVEKLRKKLKTAQQRCRRQERQLEKLKEVVHFQKEKDDVSERGYVILPNDYFEIVEVPA [Q145I] | 0.448
